Experimental data taken from patent publication US8519051B2, “Block copolymer for drug conjugates and pharmaceutical composition” (priority 2006, dated 2013).
Structures can show the parent of a compound that is named as a salt. Where two headings read alike, the source gives them in different places.

Experiments:
in vivo = conditions: rat, 1 mg/kg
Protocol: Two compounds, i.e., the conjugate (13 DOX) obtained in Example 5a and MeO-PEG-pAsp (Hyd-DOX, Bn) (8 DOX) (Example 5b) prepared in method pursuant to Example 5a and having a different amount bound of DOX were used. An amount between 10-20 mg of each polymer was weighed accurately into a sample vial, to which 1 ml of dichloromethane was added to completely dissolve the polymer. Then, under the stream of nitrogen, the solvent was evaporated to prepare the polymer in the film form. Under reduced pressure, it was further dried at room temperature for 1 hour, and then 20 mM sodium phosphate buffer (pH 7.4)/5%(w/v) glucose was added to a polymer concentration of 10 mg/ml to hydrate the polymer film at 4° C. After stirring overnight at 4° C., it was subjected to ultrasonic treatment in ice chilled water for 10 minutes using the Biodisruptor (Nihonseiki Kaisha Ltd., High Power Unit). Subsequently, it was filtered with a 0.22 μm filter (Millipore, Millex™ GP PES) to prepare a micelle of the filtrate, which was used in the subsequent experiment.
To male Wistar rats (Charles River Laboratories Japan, Inc., 6-7 weeks old) under ether anesthesia, the above two micelles were administered into the tail vein under the following condition (n=3). Heparin-coated syringes were used to collect blood, and after centrifuging the blood drawn at 4° C., plasma was collected and stored at −30° C. until use.
Dose: 1 mg/kg in terms of the amount of DOX
Blood drawing timing: 5 minutes, 1, 3, 6, 9, 24, 48 hours after administration
Amount of blood drawn: 0.2-0.25 ml each time (from the jugular vein)
To 50 μl of rat plasma collected, 100 μl of acetonitrile and 50 μl of 0.4 N HCl were added in this order to make a total of 200 μl. After stirring, it was allowed to stand at room temperature for 1 hour. Subsequently, it was centrifuged (Funakoshi, Chibitan, 10,000 rpm, 10 minutes) at room temperature to collect 100 μl of the supernatant, to which 30 μl of 0.2 N NaOH, 20 μl of 1% Triton X-100, and 50 μl of 2 μg/ml of daunorubicin hydrochloride (Wako) (internal standard)/20 mM ammonium formate buffer (pH 3.0) was added in this order to make a total of 200 μl. The treatment sample liquid was filled into a HPLC sample vial, and subjected to HPLC analysis to determine the DOX concentration in the plasma.
To 50 μl of rat plasma collected, 100 μl of acetonitrile was added, centrifuged (Funakoshi, Chibitan, 10,000 rpm, 10 minutes) at room temperature to collect 50 μl of the supernatant, to which 100 μl of 2 μg/ml of daunorubicin hydrochloride (Wako) (internal standard)/20 mM sodium phosphate buffer (pH 7.4) was added. The treatment sample liquid was filled into a HPLC sample vial, and subjected to HPLC analysis to determine the DOX concentration in the plasma.
Using the values of the above (a) and (b), the concentration of polymer-conjugated DOX was calculated based on the following equation: (Polymer-conjugated DOX concentration)=(total DOX concentration)−(free DOX concentration) 4) Result of Determination of Concentration Change with Time in the Plasma
An amount between 10-20 mg each of 4 different polymers (8, 15, 20, and 39 DOX) was weighed accurately into a sample vial, to which 1 ml of dichloromethane was added to completely dissolve the polymer. Then, under the stream of nitrogen, the solvent was evaporated to prepare the polymer in the film form. Under reduced pressure, it was further dried at room temperature for 1 hour, and then 20 mM sodium phosphate buffer (pH 7.4)/5%(w/v) glucose was added to a polymer concentration of 10 mg/ml to hydrate the polymer film at 4° C. After stirring overnight at 4° C., it was subjected to ultrasonic treatment in ice chilled water for 10 minutes using the Biodisruptor (Nihonseiki Kaisha Ltd., High Power Unit). Subsequently, it was filtered with a 0.22 μm filter (Millipore, Millex™ GP PES) to prepare polymeric micelles of the filtrate, which were used in the subsequent experiment.

[1] = side effects: changes in body weight of PC-3-xenografted nude mice; conditions: tail vein, every 4 days for a total of 3 times
Protocol: (§1) Male nude mice (Balb nu/nu, 5 weeks old) were purchased from Charles River Laboratories Japan, Inc., and human prostate cancer PC-3 cells were purchased from the Human Health Sciences Foundation Resources Bank. PC-3 cells that had been subcultured in a CO2 incubator were suspended in physiological saline for injection (Otsuka Pharmaceutical Co., Ltd.), and were subcutaneously injected into the back of the nude mice to a cell count of 2×10^6/50 μl per animal. Then, after keeping the nude mice for about 2 weeks, the administration of the drug was started when the mean of tumor volume reached about 50 mm^3.

[2] = MTD previously determined using normal healthy mice; assay type: in vivo
Protocol: as §1

[3] = test system: Human prostate cancer PC-3 cells; assay: drug efficacy study: tumor volume in PC-3-xenografted nude mice; assay type: in vivo, male nude mice (Balb nu/nu); conditions: tail vein, every 4 days for a total of 3 times
Description: Human prostate cancer PC-3 cells subcutaneous transplanted to male nude mice were used as the model for evaluating drug efficacy.

[4] = study on pH-dependency of drug release from polymeric micelles; assay type: physicochemical; conditions: 37° C.
Protocol: To 950 μl of 20 mM ammonium formate buffer (pH 3), sodium acetate buffer (pH 5), or sodium phosphate buffer (pH 7.4) previously heated to 37° C., 50 μl of the polymeric micelles prepared in the above method were added to initiate a drug release experiment. At predetermined timing, 50 μl of the sample was collected, and instead the liquid amount was replenished with the same buffer, The free DOX concentration in the collected sample was determined by HPLC according to the above-mentioned method.

Compound	AUC (in vivo; iv) [ng·h/mL]	retention in the plasma (in words) (in vivo; iv)	also measured
MeO-PEG-pAsp (amide-DOX) [13DOX (Amide) (Comp. Ex. 9)]	57900		AUC relative to that of Example 5 (in vivo; iv): about ¼; increase in AUC compared to the DOX solution (in vivo; iv): about 500 fold
MeO-PEG-pAsp (Hyd-DOX) [Comparative Example 6]			decrease in body weight (maximum) ([1]; 15 mg/kg (MTD)): 13%; MTD [2]: 15 mg/kg; T/C at the maximum (tumor volume of drug group to control group) ([3]; 15 mg/kg (MTD)): 0.42
MeO-PEG-pAsp (Hyd-DOX, C8) [12DOX (Example 3)]	90700		
MeO-PEG-pAsp (Hyd-DOX) [20DOX (Comp. Ex. 6)]	3100	rapidly disappear	
COc1cccc2c1C(=O)c1c(O)c3c(c(O)c1C2=O)C[C@@](O)(C(=O)CO)C[C@@H]3O[C@H]1C[C@H](N)[C@H](O)[C@H](C)O1 [DOX solution (Comp. Ex. 12), doxorubicin hydrochloride]			MTD ([2]; mouse, in vivo, read-out: MTD): 5 mg/kg; T/C at the maximum (tumor volume of drug group to control group) ([3]; 5 mg/kg (MTD)): 0.4
MeO-PEG-pAsp (Hyd-DOX, Bn) [13DOX (Example 5a)]	238000		decrease in body weight (maximum) ([1]; 11 mg/kg (MTD×⅔)): 15%; release of DOX from the micelles ([4]; pH 3, 20 mM ammonium formate buffer): rapidly released; release of DOX from the micelles ([4]; pH 5 to 7.4 (sodium acetate / sodium phosphate buffer)): the release rate decreased; T/C at the maximum (tumor volume of drug group to control group) ([3]; 11 mg/kg (MTD×⅔)): 0.32
MeO-PEG-pAsp (Hyd-DOX) [39DOX (Comp. Ex. 6)]	1200	rapidly disappear	
MeO-PEG-pAsp (Hyd-DOX) [8DOX (Comp. Ex. 5)]	19100	relatively persistent retention in the plasma	
MeO-PEG-pAsp (Hyd-DOX, NH4) [12DOX (Comp. Ex. 7)]	69500		AUC relative to that of Example 5 (in vivo; iv): about ¼; increase in AUC compared to the DOX solution (in vivo; iv): about 500 fold
COc1cccc2c1C(=O)c1c(O)c3c(c(O)c1C2=O)C[C@@](O)(C(=O)CO)C[C@@H]3O[C@H]1C[C@H](N)[C@@H](O)[C@H](C)O1 [epirubicin hydrochloride]			AUC (in vivo; male, Wistar): 40 ng·h/mL
MeO-PEG-pAsp (Hyd-DOX, Bn) [8DOX (Example 5b)]	149000	persistent plasma concentration	concentration of free DOX relative to the total DOX concentration in plasma (in vivo; iv): about 1/100
MeO-PEG-pAsp (Hyd-DOX) [15DOX (Comp. Ex. 6)]	7600	relatively persistent retention in the plasma	
MeO-PEG-pAsp (Hyd-DOX, C4-Phenyl) [6DOX (Example 7)]	156000		
